From paper PMC11711546 (2024)

B1: TSHZ3-HA wild-type (teashirt zinc finger homeobox 3) [human] / SOX9-Flag (SRY-box transcription factor 9) [not stated] (parent complex)
chain 1: MPRRKQQAPRRAAAYVSEELKAAALVDEGLDPEEHTADGEPSAKYMCPEKELARACPSYQNSPAAEFSCHEMDSESHISETSDRMADFESGSIKNEEETKEVTVPLEDTTVSDSLEQMKAVYNNFLSNSYWSNLNLNLHQPSSEKNNGSSSSSSSSSSSCGSGSFDWHQSAMAKTLQQVSQSRMLPEPSLFSTVQLYRQSSKLYGSIFTGASKFRCKDCSAAYDTLVELTVHMNETGHYRDDNHETDNNNPKRWSKPRKRSLLEMEGKEDAQKVLKCMYCGHSFESLQDLSVHMIKTKHYQKVPLKEPVTPVAAKIIPATRKKASLELELPSSPDSTGGTPKATISDTNDALQKNSNPYITPNNRYGHQNGASYAWHFEARKSQILKCMECGSSHDTLQELTAHMMVTGHFIKVTNSAMKKGKPIVETPVTPTITTLLDEKVQSVPLAATTFTSPSNTPASISPKLNVEVKKEVDKEKAVTDEKPKQKDKPGEEEEKCDISSKYHYLTENDLEESPKGGLDILKSLENTVTSAINKAQNGTPSWGGYPSIHAAYQLPNMMKLSLGSSGKSTPLKPMFGNSEIVSPTKNQTLVSPPSSQTSPMPKTNFHAMEELVKKVTEKVAKVEEKMKEPDGKLSPPKRATPSPCSSEVGEPIKMEASSDGGFRSQENSPSPPRDGCKDGSPLAEPVENGKELVKPLASSLSGSTAIITDHPPEQPFVNPLSALQSVMNIHLGKAAKPSLPALDPMSMLFKMSNSLAEKAAVATPPPLQSKKADHLDRYFYHVNNDQPIDLTKGKSDKGCSLGSVLLSPTSTAPATSSSTVTTAKTSAVVSFMSNSPLRENALSDISDMLKNLTESHTSKSSTPSSISEKSDIDGATLEEAEESTPAQKRKGRQSNWNPQHLLILQAQFAASLRQTSEGKYIMSDLSPQERMHISRFTGLSMTTISHWLANVKYQLRRTGGTKFLKNLDTGHPVFFCNDCASQIRTPSTYISHLESHLGFRLRDLSKLSTEQINSQIAQTKSPSEKMVTSSPEEDLGTSYQCKLCNRTFASKHAVKLHLSKTHGKSPEDHLLYVSELEKQ
chain 2: MNLLDPFMKMTDEQEKGLSGAPSPTMSEDSAGSPCPSGSGSDTENTRPQENTFPKGEPDLKKESEEDKFPVCIREAVSQVLKGYDWTLVPMPVRVNGSSKNKPHVKRPMNAFMVWAQAARRKLADQYPHLHNAELSKTLGKLWRLLNESEKRPFVEEAERLRVQHKKDHPDYKYQPRRRKSVKNGQAEAEEATEQTHISPNAIFKALQADSPHSSSGMSEVHSPGEHSGQSQGPPTPPTTPKTDVQPGKADLKREGRPLPEGGRQPPIDFRDVDIGELSSDVISNIETFDVNEFDQYLPPNGHPGVPATHGQVTYTGSYGISSTAATPASAGHVWMSKQQAPPPPPQQPPQAPPAPQAPPQPQAAPPQQPAAPPQQPQAHTLTTLSSEPGQSQRTHIKTEQLSPSHYSEQQQHSPQQIAYSPFNLPHYSPSYPPITRSQYDYTDHQNSSSYYSHAAGQGTGLYSTFTYMNPAQRPMYTPIADTSGVPSIPQTHSPQHWEQPVYTQLTRP
B2: TSHZ3-HA wild-type (teashirt zinc finger homeobox 3) [human] / MYOCD-Flag (myocardin) [not stated] (parent complex)
chain 1: B1 chain 1
chain 2: MTLLGSEHSLLIRSKFRSVLQLRLQQRRTQEQLANQGIIPPLKRPAEFHEQRKHLDSDKAKNSLKRKARNRCNSADLVNMHILQASTAERSIPTAQMKLKRARLADDLNEKIALRPGPLELVEKNILPVDSAVKEAIKGNQVSFSKSTDAFAFEEDSSSDGLSPDQTRSEDPQNSAGSPPDAKASDTPSTGSLGTNQDLASGSENDRNDSASQPSHQSDAGKQGLGPPSTPIAVHAAVKSKSLGDSKNRHKKPKDPKPKVKKLKYHQYIPPDQKAEKSPPPMDSAYARLLQQQQLFLQLQILSQQQQQQQHRFSYLGMHQAQLKEPNEQMVRNPNSSSTPLSNTPLSPVKNSFSGQTGVSSFKPGPLPPNLDDLKVSELRQQLRIRGLPVSGTKTALMDRLRPFQDCSGNPVPNFGDITTVTFPVTPNTLPNYQSSSSTSALSNGFYHFGSTSSSPPISPASSDLSVAGSLPDTFNDASPSFGLHPSPVHVCTEESLMSSLNGGSVPSELDGLDSEKDKMLVEKQKVINELTWKLQQEQRQVEELRMQLQKQKRNNCSEKKPLPFLAASIKQEEAVSSCPFASQVPVKRQSSSSECHPPACEAAQLQPLGNAHCVESSDQTNVLSSTFLSPQCSPQHSPLGAVKSPQHISLPPSPNNPHFLPSSSGAQGEGHRVSSPISSQVCTAQMAGLHSSDKVGPKFSIPSPTFSKSSSAISEVTQPPSYEDAVKQQMTRSQQMDELLDVLIESGEMPADAREDHSCLQKVPKIPRSSRSPTAVLTKPSASFEQASSGSQIPFDPYATDSDEHLEVLLNSQSPLGKMSDVTLLKIGSEEPHFDGIMDGFSGKAAEDLFNAHEILPGPLSPMQTQFSPSSVDSNGLQLSFTESPWETMEWLDLTPPNSTPGFSALTTSSPSIFNIDFLDVTDLNLNSSMDLHLQQW

Variants of: B1
Test: co-immunoprecipitation (anti-HA beads), Western blot densitometry; parent: 1; read off a plot

Row | response | Variant
1 | ~1.4 SOX9-Flag / TSHZ3-HA in IP | chain 1 A65T
2 | ~1.1 SOX9-Flag / TSHZ3-HA in IP | chain 1 P63L
3 | ~0.46 SOX9-Flag / TSHZ3-HA in IP | chain 1 S58G

Variants of: B2
Test: as above

Row | response | Variant
4 | ~1.5 MYOCD-Flag / TSHZ3-HA in IP | chain 1 A65T
5 | ~1.6 MYOCD-Flag / TSHZ3-HA in IP | chain 1 P63L
6 | ~1.9 MYOCD-Flag / TSHZ3-HA in IP | chain 1 S58G
